The target of this assay is human laminin (immobilized; Gibco BRL) (human) (UniProt P25391). In words: cell-based or functional assay.
Setting [1] is: scale: % of values obtained for the wildtype strain.

On to “Lmb on the surface of Streptococcus agalactiae (GBS) wildtype strain O90R”, for which, under setting [1], the adherence of FITC-labelled lmb mutant lmb-k1 to immobilized laminin, relative to wildtype strain O90R was determined as 25 and the adherence of FITC-labelled lmb mutant lmb-k2 to immobilized laminin, relative to wildtype strain O90R turned out to be 25.

Consider “Recombinant Lmb protein harboring six consecutive histidin residues at the C-terminus (amino acid 19-306, expressed from pET21a::lmb in E. coli BL21(DE3))”, for which the adherence of FITC-labelled O90R wildtype bacteria to laminin preincubated with recombinant Lmb (100 ug/ml) (% of the initial values) was found to be 60.

The values are drawn from patent publication US6406883.
